# In patent US10464978B2, “Peptides and combination of peptides for use in immunotherapy against ovarian cancer and other cancers” (immatics biotechnologies GmbH, priority 2015, dated 2019):
# Molecular target: HLA-A*02:01 (Homo sapiens, UniProt P04439, D140Y/D185E/D98H/E176V/E277Q/G131W/G231S/I119V/I121R/I166T/I218V/L300P/L318F/N151K/N90K/P208A/P217A/Q86G/Q94H/R138H/R169H/T345S)
# Experiment: MHC binding assay: UV-ligand exchange with beta2m ELISA (peptide exchange yield)
# Settings: binding to HLA-A*02:01
# Excerpt: Candidate peptides for T cell based therapies according to the present invention were further tested for their MHC binding capacity (affinity). The individual peptide-MHC complexes were produced by UV-ligand exchange, where a UV-sensitive peptide is cleaved upon UV-irradiation, and exchanged with the peptide of interest as analyzed. Only peptide candidates that can effectively bind and stabilize the peptide-receptive MHC molecules prevent dissociation of the MHC complexes. To determine the yield of the exchange reaction, an ELISA was performed based on the detection of the light chain ([…]) of stabilized MHC complexes. The assay was performed as generally described in Rodenko et al. (Rodenko et al., 2006).
# 96 well MAXISorp plates (NUNC) were coated over night with 2 ug/ml streptavidin in PBS at room temperature, washed 4× and blocked for 1 h at 37° C. in 2% BSA containing blocking buffer. […] Peptide-MHC monomers of the UV-exchange reaction were diluted 100 fold in blocking buffer. Samples were incubated for 1h at 37° C., washed four times, incubated with 2 ug/ml HRP conjugated anti-β2m for 1h at 37° C., washed again and detected with TMB solution that is stopped with […]. Absorption was measured at 450 nm. Candidate peptides that show a high exchange yield (preferably higher than 50%, most preferred higher than 75%) are generally preferred for a generation and production of antibodies or fragments thereof, and/or T cell receptors or fragments thereof, as they show sufficient avidity to the MHC molecules and prevent dissociation of the MHC complexes.
row,Substance,"Peptide exchange (MHC class I binding score, peptide exchange yield)"
1,543 (GLLPTPITQQASL; listed as Homo sapiens) [compound 543],“+++” (≥50 = +++)
2,331 (KVDTVWVNV; listed as Homo sapiens) [compound 331],“+++” (≥50 = +++)
3,217 (ALIHPVSTV; listed as Homo sapiens) [compound 217],“++” (≥20% = ++)
4,595 (VLLSIYPRV; listed as Homo sapiens) [compound 595],“+++” (≥50 = +++)
5,328 (ALNDQVFEI; listed as Homo sapiens) [compound 328],“+++” (≥50 = +++)
6,50 (SLSELEALM; listed as Homo sapiens) [compound 50],“+++” (≥50 = +++)
7,84 (VTFGEKLLGV; listed as Homo sapiens) [compound 84],“++” (≥20% = ++)
8,474 (YLDPALELGPRNV; listed as Homo sapiens) [compound 474],“+++” (≥50 = +++)
9,236 (GLLEAKVSL; listed as Homo sapiens) [compound 236],“+++” (≥50 = +++)
10,316 (ILLERLWYV; listed as Homo sapiens) [compound 316],“+++” (≥50 = +++)
11,344 (YLQDQHLLLTV; listed as Homo sapiens) [compound 344],“+++” (≥50 = +++)
12,107 (FLQPVDDTQHL; listed as Homo sapiens) [compound 107],“+++” (≥50 = +++)
13,201 (RLVDYLEGI; listed as Homo sapiens) [compound 201],“+++” (≥50 = +++)
14,515 (LLQELVLFL; listed as Homo sapiens) [compound 515],“+++” (≥50 = +++)
15,76 (ILIDSIYKV; listed as Homo sapiens) [compound 76],“+++” (≥50 = +++)
16,148 (ALNPEIVSV; listed as Homo sapiens) [compound 148],“++” (≥20% = ++)
17,327 (GLAPFTEGISFV; listed as Homo sapiens) [compound 327],“+++” (≥50 = +++)
18,600 (ALAAPDIVPAL; listed as Homo sapiens) [compound 600],“+++” (≥50 = +++)
19,166 (YLNHLEPPV; listed as Homo sapiens) [compound 166],“+++” (≥50 = +++)
20,286 (YLFPGIPEL; listed as Homo sapiens) [compound 286],“+++” (≥50 = +++)
21,320 (KMFEFVEPLL; listed as Homo sapiens) [compound 320],“++++” (≥75% = ++++)

row,Substance,"Peptide exchange (MHC class I binding score, peptide exchange yield)"
1,508 (ILAQEQLVVGV; listed as Homo sapiens) [compound 508],“+++” (≥50 = +++)
2,529 (LLADELITV; listed as Homo sapiens) [compound 529],“+++” (≥50 = +++)
3,81 (FLFSQLQYL; listed as Homo sapiens) [compound 81],“++” (≥20% = ++)
4,147 (SLLEAVSFL; listed as Homo sapiens) [compound 147],“+++” (≥50 = +++)
5,551 (KLYESLLPFA; listed as Homo sapiens) [compound 551],“+++” (≥50 = +++)
6,297 (VLADIELAQA; listed as Homo sapiens) [compound 297],“+++” (≥50 = +++)
7,238 (YLISFQTHI; listed as Homo sapiens) [compound 238],“+++” (≥50 = +++)
8,46 (ILTEENIHL; listed as Homo sapiens) [compound 46],“+++” (≥50 = +++)
9,460 (AMLEKNYKL; listed as Homo sapiens) [compound 460],“++++” (≥75% = ++++)
10,586 (KLKPGDLVGV; listed as Homo sapiens) [compound 586],“+++” (≥50 = +++)
11,188 (GLFPVTPEAV; listed as Homo sapiens) [compound 188],“+++” (≥50 = +++)
12,594 (IMLKGDNITL; listed as Homo sapiens) [compound 594],“+++” (≥50 = +++)
13,518 (KLNAEVACV; listed as Homo sapiens) [compound 518],“+++” (≥50 = +++)
14,28 (QLLDETSAITL; listed as Homo sapiens) [compound 28],“+++” (≥50 = +++)
15,48 (ALAELYEDEV; listed as Homo sapiens) [compound 48],“+++” (≥50 = +++)
16,4 (GIMEHITKI; listed as Homo sapiens) [compound 4],“++++” (≥75% = ++++)
17,506 (KLLGKVETA; listed as Homo sapiens) [compound 506],“+++” (≥50 = +++)
18,73 (NIFDLQIYV; listed as Homo sapiens) [compound 73],“+++” (≥50 = +++)
19,473 (AMATESILHFA; listed as Homo sapiens) [compound 473],“+++” (≥50 = +++)
20,611 (YLLDDGTLVV; listed as Homo sapiens) [compound 611],“++++” (≥75% = ++++)
21,484 (SLIEKVTQL; listed as Homo sapiens) [compound 484],“+++” (≥50 = +++)

row,Substance,"Peptide exchange (MHC class I binding score, peptide exchange yield)"
1,384 (ILFANPNIFV; listed as Homo sapiens) [compound 384],“+++” (≥50 = +++)
2,449 (KLAEGLDIQL; listed as Homo sapiens) [compound 449],“+++” (≥50 = +++)
3,266 (KITDTLIHL; listed as Homo sapiens) [compound 266],“+++” (≥50 = +++)
4,547 (TLDITPHTV; listed as Homo sapiens) [compound 547],“+++” (≥50 = +++)
5,481 (GLIEDYEALL; listed as Homo sapiens) [compound 481],“+++” (≥50 = +++)
6,380 (TLIEDEIATI; listed as Homo sapiens) [compound 380],“++” (≥20% = ++)
7,521 (MLLTKLPTI; listed as Homo sapiens) [compound 521],“+++” (≥50 = +++)
8,252 (LLIGTDVSL; listed as Homo sapiens) [compound 252],“+++” (≥50 = +++)
9,367 (SLQNHNHQL; listed as Homo sapiens) [compound 367],“+++” (≥50 = +++)
10,341 (SQIALNEKLVNL; listed as Homo sapiens) [compound 341],“+++” (≥50 = +++)
11,67 (TLLAEALVTV; listed as Homo sapiens) [compound 67],“+++” (≥50 = +++)
12,160 (FLFDEEIEQI; listed as Homo sapiens) [compound 160],“+++” (≥50 = +++)
13,244 (SLFGGTEITI; listed as Homo sapiens) [compound 244],“+++” (≥50 = +++)
14,358 (ALDEYTSEL; listed as Homo sapiens) [compound 358],“++++” (≥75% = ++++)
15,588 (SLLPLSHLV; listed as Homo sapiens) [compound 588],“+++” (≥50 = +++)
16,362 (TLYGLSVLL; listed as Homo sapiens) [compound 362],“+++” (≥50 = +++)
17,412 (YLDDLNEGVYI; listed as Homo sapiens) [compound 412],“++” (≥20% = ++)
18,10 (FLATFPLAAV; listed as Homo sapiens) [compound 10],“++++” (≥75% = ++++)
19,137 (TLVLTLPTV; listed as Homo sapiens) [compound 137],“++++” (≥75% = ++++)
20,541 (SMLEPVPEL; listed as Homo sapiens) [compound 541],“+++” (≥50 = +++)
